# Laboratory results taken from patent publication US8138323.
# Columns and labels:
# [1] = target: TNF Binding Protein I (human) (UniProt P19438); experiment: solid phase assay, 125I-TBP-I bound to TNF-α with 10 µg/ml IL-6 as competitor
# [2] = target: Tumor Necrosis Factor (TNF) Binding Protein II (human) (UniProt P20333); experiment: solid phase assay, 125I-TBP-II bound to TNF-α with 10 µg/ml IL-6 as competitor
# [3] = target: TNF Binding Protein I (human) (UniProt P19438); experiment: solid phase assay, 125I-TBP-I bound to TNF-α with 10 µg/ml IFN-gamma as competitor
# [4] = target: Tumor Necrosis Factor (TNF) Binding Protein II (human) (UniProt P20333); experiment: solid phase assay, 125I-TBP-II bound to TNF-α with 10 µg/ml IFN-gamma as competitor
# [5] = target: TNF Binding Protein I (human) (UniProt P19438); experiment: solid phase assay, 125I-TBP-I bound to TNF-α with 10 µg/ml IL-1α as competitor
# [6] = target: Tumor Necrosis Factor (TNF) Binding Protein II (human) (UniProt P20333); experiment: solid phase assay, 125I-TBP-II bound to TNF-α with 10 µg/ml IL-1α as competitor
substance,measurement,setting,value
IL-6 (from UniProt P05231 30-212) (ligand),bound CPM,[1],27000 CPM
same,bound CPM,[2],18600 CPM
IFN-gamma (from UniProt P01579 24-166) (ligand),bound CPM,[3],28000 CPM
same,bound CPM,[4],18500 CPM
IL-1α (from UniProt P01583 113-271) (ligand),bound CPM,[5],28100 CPM
same,bound CPM,[6],17800 CPM
